# Data reported in patent publication US20260242735A1.
# Key:
# human CD33 I47Q (human) = human CD33 I47Q (human) (UniProt P20138); test: flow cytometry on transfected cells, IgG
# human CD33 P46R (human) = human CD33 P46R (human) (UniProt P20138); test: flow cytometry on transfected cells, IgG
# human CD33 Y50V (human) = human CD33 Y50V (human) (UniProt P20138); test: flow cytometry on transfected cells, IgG
# human CD33 Y49L (human) = human CD33 Y49L (human) (UniProt P20138); test: flow cytometry on transfected cells, IgG
# human CD33 Y50S (human) = human CD33 Y50S (human) (UniProt P20138); test: flow cytometry on transfected cells, IgG
# human CD33 P48Q (human) = human CD33 P48Q (human) (UniProt P20138); test: flow cytometry on transfected cells, IgG
# human CD33 I47E (human) = human CD33 I47E (human) (UniProt P20138); test: flow cytometry on transfected cells, IgG
# human CD33 Y49I (human) = human CD33 Y49I (human) (UniProt P20138); test: flow cytometry on transfected cells, IgG
# human CD33 F44V (human) = human CD33 F44V (human) (UniProt P20138); test: flow cytometry on transfected cells, IgG
# human CD33 I47Y (human) = human CD33 I47Y (human) (UniProt P20138); test: flow cytometry on transfected cells, IgG
# human CD33 Y49R (human) = human CD33 Y49R (human) (UniProt P20138); test: flow cytometry on transfected cells, IgG
# human CD33 F44H (human) = human CD33 F44H (human) (UniProt P20138); test: flow cytometry on transfected cells, IgG
# human CD33 P46D (human) = human CD33 P46D (human) (UniProt P20138); test: flow cytometry on transfected cells, IgG
# human CD33 F44S (human) = human CD33 F44S (human) (UniProt P20138); test: flow cytometry on transfected cells, IgG
# human CD33 I47P (human) = human CD33 I47P (human) (UniProt P20138); test: flow cytometry on transfected cells, IgG
# human CD33 F44L (human) = human CD33 F44L (human) (UniProt P20138); test: flow cytometry on transfected cells, IgG
# human CD33 H45Y (human) = human CD33 H45Y (human) (UniProt P20138); test: flow cytometry on transfected cells, IgG
# human CD33 I47T (human) = human CD33 I47T (human) (UniProt P20138); test: flow cytometry on transfected cells, IgG
# human CD33 F43V (human) = human CD33 F43V (human) (UniProt P20138); test: flow cytometry on transfected cells, IgG
# human CD33 P46S (human) = human CD33 P46S (human) (UniProt P20138); test: flow cytometry on transfected cells, IgG
# human CD33 Y49D (human) = human CD33 Y49D (human) (UniProt P20138); test: flow cytometry on transfected cells, IgG
# human CD33 I47S (human) = human CD33 I47S (human) (UniProt P20138); test: flow cytometry on transfected cells, IgG
# human CD33 Y50L (human) = human CD33 Y50L (human) (UniProt P20138); test: flow cytometry on transfected cells, IgG
# human CD33 P46I (human) = human CD33 P46I (human) (UniProt P20138); test: flow cytometry on transfected cells, IgG
# human CD33 Y50P (human) = human CD33 Y50P (human) (UniProt P20138); test: flow cytometry on transfected cells, IgG
# human CD33 Y49G (human) = human CD33 Y49G (human) (UniProt P20138); test: flow cytometry on transfected cells, IgG
# human CD33 P48V (human) = human CD33 P48V (human) (UniProt P20138); test: flow cytometry on transfected cells, IgG
# human CD33 Y49S (human) = human CD33 Y49S (human) (UniProt P20138); test: flow cytometry on transfected cells, IgG
# human CD33 P46F (human) = human CD33 P46F (human) (UniProt P20138); test: flow cytometry on transfected cells, IgG
# human CD33 Y49Q (human) = human CD33 Y49Q (human) (UniProt P20138); test: flow cytometry on transfected cells, IgG
# human CD33 I47V (human) = human CD33 I47V (human) (UniProt P20138); test: flow cytometry on transfected cells, IgG
# human CD33 I47F (human) = human CD33 I47F (human) (UniProt P20138); test: flow cytometry on transfected cells, IgG
# human CD33 P72A (human) = human CD33 P72A (human) (UniProt P20138); test: alanine scan, flow cytometry, HEK293-T
# human CD33 N99A (human) = human CD33 N99A (human) (UniProt P20138); test: alanine scan, flow cytometry, HEK293-T
# human CD33 R122A (human) = human CD33 R122A (human) (UniProt P20138); test: alanine scan, flow cytometry, HEK293-T
# human CD33 G94A (human) = human CD33 G94A (human) (UniProt P20138); test: alanine scan, flow cytometry, HEK293-T
# human CD33 T86A (human) = human CD33 T86A (human) (UniProt P20138); test: alanine scan, flow cytometry, HEK293-T
# human CD33 D107A (human) = human CD33 D107A (human) (UniProt P20138); test: alanine scan, flow cytometry, HEK293-T
# human CD33 V165A (human) = human CD33 V165A (human) (UniProt P20138); test: alanine scan, flow cytometry, HEK293-T
# human CD33 S97A (human) = human CD33 S97A (human) (UniProt P20138); test: alanine scan, flow cytometry, HEK293-T
# human CD33 R109A (human) = human CD33 R109A (human) (UniProt P20138); test: alanine scan, flow cytometry, HEK293-T
# human CD33 D79A (human) = human CD33 D79A (human) (UniProt P20138); test: alanine scan, flow cytometry, HEK293-T
# human CD33 Q171A (human) = human CD33 Q171A (human) (UniProt P20138); test: alanine scan, flow cytometry, HEK293-T
# human CD33 L134A (human) = human CD33 L134A (human) (UniProt P20138); test: alanine scan, flow cytometry, HEK293-T
# human CD33 D70A (human) = human CD33 D70A (human) (UniProt P20138); test: alanine scan, flow cytometry, HEK293-T
# human CD33 C101A (human) = human CD33 C101A (human) (UniProt P20138); test: alanine scan, flow cytometry, HEK293-T
# human CD33 G88A (human) = human CD33 G88A (human) (UniProt P20138); test: alanine scan, flow cytometry, HEK293-T
# Sequence of human CD33 G88A (human) (P20138 18-364 G88A limits assumed): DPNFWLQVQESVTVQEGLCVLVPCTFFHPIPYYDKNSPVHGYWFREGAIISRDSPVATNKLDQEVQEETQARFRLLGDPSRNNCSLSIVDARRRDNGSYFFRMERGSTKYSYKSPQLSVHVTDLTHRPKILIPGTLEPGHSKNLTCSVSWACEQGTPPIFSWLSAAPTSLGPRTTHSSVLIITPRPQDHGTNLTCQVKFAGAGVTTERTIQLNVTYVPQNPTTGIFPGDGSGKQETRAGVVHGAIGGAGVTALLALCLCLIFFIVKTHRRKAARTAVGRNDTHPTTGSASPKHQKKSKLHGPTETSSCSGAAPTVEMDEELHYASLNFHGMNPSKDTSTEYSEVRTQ
# Sequence of human CD33 V165A (human) (P20138 18-364 V165A limits assumed): as the sequence (P20138 18-364 G88A limits assumed) above, with A71G, V148A counted along it
# Sequence of human CD33 F44H (human) (P20138 18-364 F44H limits assumed): as the sequence (P20138 18-364 G88A limits assumed) above, with F27H, A71G counted along it
# Sequence of human CD33 T86A (human) (P20138 18-364 T86A limits assumed): as the sequence (P20138 18-364 G88A limits assumed) above, with T69A, A71G counted along it
# Sequence of human CD33 P46F (human) (P20138 18-364 P46F limits assumed): as the sequence (P20138 18-364 G88A limits assumed) above, with P29F, A71G counted along it
# Sequence of human CD33 D107A (human) (P20138 18-364 D107A limits assumed): as the sequence (P20138 18-364 G88A limits assumed) above, with A71G, D90A counted along it
# Sequence of human CD33 D79A (human) (P20138 18-364 D79A limits assumed): as the sequence (P20138 18-364 G88A limits assumed) above, with D62A, A71G counted along it
# Sequence of human CD33 Y50V (human) (P20138 18-364 Y50V limits assumed): as the sequence (P20138 18-364 G88A limits assumed) above, with Y33V, A71G counted along it
# Sequence of human CD33 P48V (human) (P20138 18-364 P48V limits assumed): as the sequence (P20138 18-364 G88A limits assumed) above, with P31V, A71G counted along it
# Sequence of human CD33 I47F (human) (P20138 18-364 I47F limits assumed): as the sequence (P20138 18-364 G88A limits assumed) above, with I30F, A71G counted along it
# Sequence of human CD33 R109A (human) (P20138 18-364 R109A limits assumed): as the sequence (P20138 18-364 G88A limits assumed) above, with A71G, R92A counted along it
# Sequence of human CD33 Y50P (human) (P20138 18-364 Y50P limits assumed): as the sequence (P20138 18-364 G88A limits assumed) above, with Y33P, A71G counted along it
# Sequence of human CD33 G94A (human) (P20138 18-364 G94A limits assumed): as the sequence (P20138 18-364 G88A limits assumed) above, with A71G, G77A counted along it
# Sequence of human CD33 Y49R (human) (P20138 18-364 Y49R limits assumed): as the sequence (P20138 18-364 G88A limits assumed) above, with Y32R, A71G counted along it
substance,measurement,setting,value
Refmab #7 (WM53) (antibody),Mean % WT Binding,human CD33 I47Q (human),8.2 % WT binding
same,Mean % WT Binding,human CD33 P46R (human),33.4 % WT binding
same,Mean % WT Binding,human CD33 Y50V (human),3.9 % WT binding
same,Mean % WT Binding,human CD33 Y49L (human),1.6 % WT binding
same,Mean % WT Binding,human CD33 Y50S (human),7.7 % WT binding
same,Mean % WT Binding,human CD33 P48Q (human),1.3 % WT binding
same,Mean % WT Binding,human CD33 I47E (human),3.9 % WT binding
same,Mean % WT Binding,human CD33 Y49I (human),0.2 % WT binding
same,Mean % WT Binding,human CD33 F44V (human),36.1 % WT binding
same,Mean % WT Binding,human CD33 I47Y (human),79.6 % WT binding
same,Mean % WT Binding,human CD33 Y49R (human),1.6 % WT binding
same,Mean % WT Binding,human CD33 F44H (human),82.4 % WT binding
same,Mean % WT Binding,human CD33 P46D (human),15.9 % WT binding
same,Mean % WT Binding,human CD33 F44S (human),31.8 % WT binding
same,Mean % WT Binding,human CD33 I47P (human),1.2 % WT binding
same,Mean % WT Binding,human CD33 F44L (human),99.6 % WT binding
same,Mean % WT Binding,human CD33 H45Y (human),75.7 % WT binding
same,Mean % WT Binding,human CD33 I47T (human),32.7 % WT binding
same,Mean % WT Binding,human CD33 F43V (human),73.4 % WT binding
same,Mean % WT Binding,human CD33 P46S (human),96.4 % WT binding
same,Mean % WT Binding,human CD33 Y49D (human),3.9 % WT binding
same,Mean % WT Binding,human CD33 I47S (human),33.6 % WT binding
same,Mean % WT Binding,human CD33 Y50L (human),4.7 % WT binding
same,Mean % WT Binding,human CD33 P46I (human),107 % WT binding
same,Mean % WT Binding,human CD33 Y50P (human),0.4 % WT binding
same,Mean % WT Binding,human CD33 Y49G (human),20.5 % WT binding
same,Mean % WT Binding,human CD33 P48V (human),0.9 % WT binding
same,Mean % WT Binding,human CD33 Y49S (human),3.6 % WT binding
same,Mean % WT Binding,human CD33 P46F (human),23 % WT binding
same,Mean % WT Binding,human CD33 Y49Q (human),0.7 % WT binding
same,Mean % WT Binding,human CD33 I47V (human),97.4 % WT binding
same,Mean % WT Binding,human CD33 I47F (human),85.2 % WT binding
same,Mean % WT Binding,human CD33 P72A (human),114 % WT binding
same,Mean % WT Binding,human CD33 N99A (human),102 % WT binding
same,Mean % WT Binding,human CD33 R122A (human),25.1 % WT binding
same,Mean % WT Binding,human CD33 G94A (human),99.2 % WT binding
same,Mean % WT Binding,human CD33 T86A (human),111 % WT binding
same,Mean % WT Binding,human CD33 D107A (human),113 % WT binding
same,Mean % WT Binding,human CD33 V165A (human),118 % WT binding
same,Mean % WT Binding,human CD33 S97A (human),128 % WT binding
same,Mean % WT Binding,human CD33 R109A (human),127 % WT binding
same,Mean % WT Binding,human CD33 D79A (human),83.5 % WT binding
same,Mean % WT Binding,human CD33 Q171A (human),121 % WT binding
same,Mean % WT Binding,human CD33 L134A (human),96.6 % WT binding
same,Mean % WT Binding,human CD33 D70A (human),81.2 % WT binding
same,Mean % WT Binding,human CD33 C101A (human),1.8 % WT binding
same,Mean % WT Binding,human CD33 G88A (human),115 % WT binding
